Experimental data published in patent US20250339569A1 (3B PHARMACEUTICALS, published 2025).
Blank lines part the entries; values can stand above or below the binder they belong to. Starred links: 1 amine or outer side, 2 acyl side, 3 side chain; linkers in the order of their positions; H or OH if unused. Positions of bridges follow the written chain, without caps; N, C: chain ends. Non-standard residues stand in square brackets, D forms with d. Groups on a side chain read outwards from the residue. No end group written: not given here. *: point of attachment. DOTA = O=C(O)CN1CCN(CC(=O)O)CCN(CC(=O)*)CCN(CC(=O)O)CC1; mXylylene = c1cc(C[*:1])cc(C[*:2])c1; tBuAla = CC(C)(C)C[C@H](N)C(=O)O; Pen = CC(C)(S)[C@H](N)C(=O)O; 4Amb = NCc1ccc(C(=O)O)cc1; Ac6c = NC1(C(=O)O)CCCCC1; 4Amc = not defined here; Apr = not defined here; AEEA = NCCOCCOCC(=O)O; Nlys = NCCCCNCC(=O)O; Sar = CNCC(=O)O

Target: human carbonic anhydrase 9 (CAIX) (human, UniProt Q16790 38-459)
Assay: FACS competition on HT-29 cells against tracer 3BP-2776; pIC50 category A = pIC50 >8.0
Protocol: CAIX-expressing human HT-29 colorectal cancer cells (DSMZ, RRID: CVCL_0320) were cultured in McCoys's 5A modified medium (Biochrom, #F1015) including 10% fetal calf serum (FCS), 2 mM L-glutamine, 100 U/ml penicillin and 100 μg/mL streptomycin. Cells were detached with Accutase (Biolegend, #423201) and washed in FACS buffer (PBS including 1% FCS). Cells were diluted in FACS buffer to a final concentration of 500.000 cells per ml. 200 μL of the cell suspension were transferred to a u-shaped non-binding 96-well plate (Greiner) and cells were washed in ice-cold FACS buffer.
When biotinylated compounds were used an additional incubation step with 1 μg/mL APC-Streptavidin (Miltenyi; #130-106-791) in 50 μL FACS buffer for 30 minutes on ice was performed.
Cells were washed twice with ice-cold FACS buffer and analyzed in an Attune NxT flow cytometer (Thermo Fisher). Median fluorescence intensities (MFI) of the APC/Cy5-channel were calculated by Attune NxT software.

pIC50: > 8 pic50
B3: 3BP-3501 (peptide)
peptide: Ac-VYCE[Sar]DW[tBuAla]TWA[Pen]-NH2
modifications: linker 3-12 via mXylylene
SMILES: CC(=O)N[C@H](C(=O)N[C@@H](Cc1ccc(O)cc1)C(=O)N[C@H]1CSCc2cccc(c2)CSC(C)(C)[C@@H](C(N)=O)NC(=O)[C@H](C)NC(=O)[C@H](Cc2c[nH]c3ccccc23)NC(=O)[C@H]([C@@H](C)O)NC(=O)[C@H](CC(C)(C)C)NC(=O)[C@H](Cc2c[nH]c3ccccc23)NC(=O)[C@H](CC(=O)O)NC(=O)CN(C)C(=O)[C@H](CCC(=O)O)NC1=O)C(C)C
notes: also called Ac-Val-Tyr-[Cys(3MeBn)-Glu-Nmg-Asp-Trp-Npg-Thr-Trp-Ala-Pen]-NH2

pIC50: > 8 pic50
B5: 3BP-3562 (peptide)
peptide: Ac-VYCE[Nlys](DOTA)DWLTWAC-NH2
modifications: linker 3-12 via mXylylene
notes: also called Ac-Val-Tyr-[Cys(3MeBn)-Glu-Nlys(DOTA)-Asp-Trp-Leu-Thr-Trp-Ala-Cys]-NH2

pIC50: > 8 pic50
B7: 3BP-3503 (peptide)
peptide: Ac-VYCE[dP]DW[Ac6c]TWAC-NH2
modifications: linker 3-12 via mXylylene
SMILES: CC(=O)N[C@H](C(=O)N[C@@H](Cc1ccc(O)cc1)C(=O)N[C@H]1CSCc2cccc(c2)CSC[C@@H](C(N)=O)NC(=O)[C@H](C)NC(=O)[C@H](Cc2c[nH]c3ccccc23)NC(=O)[C@H]([C@@H](C)O)NC(=O)C2(CCCCC2)NC(=O)[C@H](Cc2c[nH]c3ccccc23)NC(=O)[C@H](CC(=O)O)NC(=O)[C@H]2CCCN2C(=O)[C@H](CCC(=O)O)NC1=O)C(C)C
notes: also called Ac-Val-Tyr-[Cys(3MeBn)-Glu-pro-Asp-Trp-Egz-Thr-Trp-Ala-Cys]-NH2

pIC50: > 8 pic50
B11: 3BP-3734 (peptide)
peptide: Ac-VRCE[dP]DWLTWE([Apr-AEEA-DOTA])C-NH2
modifications: linker 3-12 via 3MeBn; reading uncertain
notes: also called Ac-Val-Arg-[Cys(3MeBn)-Glu-pro-Asp-Trp-Leu-Thr-Trp-Glu(NH-Apr-O2Oc-DOTA′)-Cys]-NH2

pIC50: > 8 pic50
B12: 3BP-3784 (peptide)
peptide: VYCE[dP]DWLTWSC-NH2
modifications: linker 3-12 via 3MeBn; not fully specified (N-terminus); also: europium complexed by DOTA
notes: also called EuDOTA-APAc-Val-Tyr-[Cys(3MeBn)-Glu-pro-Asp-Trp-Leu-Thr-Trp-Ser-Cys]-NH2

pIC50: > 8 pic50
B13: 3BP-3845 (peptide)
peptide: Ac-VRCE[dP]DWLTWEC-NH2
modifications: linker 3-12 via mXylylene; not fully specified (residue 11); also: indium complexed by DOTA
notes: also called Ac-Val-Arg-[Cys(3MeBn)-Glu-pro-Asp-Trp-Leu-Thr-Trp-Glu(NH-Apr-O2Oc-InDOTA′)-Cys]-NH2

pIC50: > 8 pic50
B14: 3BP-3843 (peptide)
peptide: Ac-VYCE[dP]DWLTWEC-NH2
modifications: linker 3-12 via mXylylene; not fully specified (residue 11); also: indium complexed by DOTA
notes: also called Ac-Val-Tyr-[Cys(3MeBn)-Glu-pro-Asp-Trp-Leu-Thr-Trp-Glu(NH-Apr-O2Oc-InDOTA′)-Cys]-NH2

pIC50: > 8 pic50
B15: 3BP-3873 (peptide)
peptide: Ac-SYCE[dP]DWLTWE([Apr-DOTA])C-NH2
modifications: linker 3-12 via mXylylene; reading uncertain
notes: also called Ac-Ser-Tyr-[Cys(3MeBn)-Glu-pro-Asp-Trp-Leu-Thr-Trp-Glu(NH-Apr-DOTA′)-Cys]-NH2

pIC50: > 8 pic50
B16: 3BP-3844 (peptide)
peptide: Ac-VFCE[dP]DWLTWEC-NH2
modifications: linker 3-12 via mXylylene; not fully specified (residue 11); also: indium complexed by DOTA
notes: also called Ac-Val-Phe-[Cys(3MeBn)-Glu-pro-Asp-Trp-Leu-Thr-Trp-Glu(NH-Apr-O2Oc-InDOTA′)-Cys]-NH2

pIC50: > 8 pic50
B17: 3BP-3735 (peptide)
peptide: Ac-SRCE[dP]DWLTWE([Apr-AEEA-DOTA])C-NH2
modifications: linker 3-12 via 3MeBn; reading uncertain
notes: also called Ac-Ser-Arg-[Cys(3MeBn)-Glu-pro-Asp-Trp-Leu-Thr-Trp-Glu(NH-Apr-O2Oc-DOTA′)-Cys]-NH2

Further lines, the binder ahead of its results:

B1: 3BP-3477 (peptide)
peptide: Ac-VYCE[dP]DWLTWAC[4Amb]K(DOTA)-NH2
modifications: linker 3-12 via mXylylene
SMILES: CC(=O)N[C@H](C(=O)N[C@@H](Cc1ccc(O)cc1)C(=O)N[C@H]1CSCc2cccc(c2)CSC[C@@H](C(=O)NCc2ccc(C(=O)N[C@@H](CCCCNC(=O)CN3CCN(CC(=O)O)CCN(CC(=O)O)CCN(CC(=O)O)CC3)C(N)=O)cc2)NC(=O)[C@H](C)NC(=O)[C@H](Cc2c[nH]c3ccccc23)NC(=O)[C@H]([C@@H](C)O)NC(=O)[C@H](CC(C)C)NC(=O)[C@H](Cc2c[nH]c3ccccc23)NC(=O)[C@H](CC(=O)O)NC(=O)[C@H]2CCCN2C(=O)[C@H](CCC(=O)O)NC1=O)C(C)C
notes: also called Ac-Val-Tyr-[Cys(3MeBn)-Glu-pro-Asp-Trp-Leu-Thr-Trp-Ala-Cys]-Pamb-Lys(DOTA)-NH2
pIC50: > 8 pic50

B2: 3BP-3493 (peptide)
peptide: Ac-VYCE[dP]DW[tBuAla]TWA[Pen]-NH2
modifications: linker 3-12 via mXylylene
SMILES: CC(=O)N[C@H](C(=O)N[C@@H](Cc1ccc(O)cc1)C(=O)N[C@H]1CSCc2cccc(c2)CSC(C)(C)[C@@H](C(N)=O)NC(=O)[C@H](C)NC(=O)[C@H](Cc2c[nH]c3ccccc23)NC(=O)[C@H]([C@@H](C)O)NC(=O)[C@H](CC(C)(C)C)NC(=O)[C@H](Cc2c[nH]c3ccccc23)NC(=O)[C@H](CC(=O)O)NC(=O)[C@H]2CCCN2C(=O)[C@H](CCC(=O)O)NC1=O)C(C)C
notes: also called Ac-Val-Tyr-[Cys(3MeBn)-Glu-pro-Asp-Trp-Npg-Thr-Trp-Ala-Pen]-NH2
pIC50: > 8 pic50

B4: 3BP-3492 (peptide)
peptide: Ac-VYCE[dP]DWLTWA[Pen]-NH2
modifications: linker 3-12 via mXylylene
SMILES: CC(=O)N[C@H](C(=O)N[C@@H](Cc1ccc(O)cc1)C(=O)N[C@H]1CSCc2cccc(c2)CSC(C)(C)[C@@H](C(N)=O)NC(=O)[C@H](C)NC(=O)[C@H](Cc2c[nH]c3ccccc23)NC(=O)[C@H]([C@@H](C)O)NC(=O)[C@H](CC(C)C)NC(=O)[C@H](Cc2c[nH]c3ccccc23)NC(=O)[C@H](CC(=O)O)NC(=O)[C@H]2CCCN2C(=O)[C@H](CCC(=O)O)NC1=O)C(C)C
notes: also called Ac-Val-Tyr-[Cys(3MeBn)-Glu-pro-Asp-Trp-Leu-Thr-Trp-Ala-Pen]-NH2
pIC50: > 8 pic50

B6: 3BP-3491 (peptide)
peptide: Ac-VYCE[dP]DW[tBuAla]TWSC-NH2
modifications: linker 3-12 via mXylylene
SMILES: CC(=O)N[C@H](C(=O)N[C@@H](Cc1ccc(O)cc1)C(=O)N[C@H]1CSCc2cccc(c2)CSC[C@@H](C(N)=O)NC(=O)[C@H](CO)NC(=O)[C@H](Cc2c[nH]c3ccccc23)NC(=O)[C@H]([C@@H](C)O)NC(=O)[C@H](CC(C)(C)C)NC(=O)[C@H](Cc2c[nH]c3ccccc23)NC(=O)[C@H](CC(=O)O)NC(=O)[C@H]2CCCN2C(=O)[C@H](CCC(=O)O)NC1=O)C(C)C
notes: also called Ac-Val-Tyr-[Cys(3MeBn)-Glu-pro-Asp-Trp-Npg-Thr-Trp-Ser-Cys]-NH2
pIC50: > 8 pic50

B8: 3BP-3431 (peptide)
peptide: {DOTA-4Amc}-VYCE[dP]DW[tBuAla]TWAC-NH2
modifications: linker 3-12 via mXylylene; reading uncertain
notes: also called DOTA-4Amc-Val-Tyr-[Cys(3MeBn)-Glu-pro-Asp-Trp-Npg-Thr-Trp-Ala-Cys]-NH2
pIC50: > 8 pic50

B9: 3BP-3490 (peptide)
peptide: Ac-VYCE[dP]DW[tBuAla]TWAC-NH2
modifications: linker 3-12 via mXylylene
SMILES: CC(=O)N[C@H](C(=O)N[C@@H](Cc1ccc(O)cc1)C(=O)N[C@H]1CSCc2cccc(c2)CSC[C@@H](C(N)=O)NC(=O)[C@H](C)NC(=O)[C@H](Cc2c[nH]c3ccccc23)NC(=O)[C@H]([C@@H](C)O)NC(=O)[C@H](CC(C)(C)C)NC(=O)[C@H](Cc2c[nH]c3ccccc23)NC(=O)[C@H](CC(=O)O)NC(=O)[C@H]2CCCN2C(=O)[C@H](CCC(=O)O)NC1=O)C(C)C
notes: also called Ac-Val-Tyr-[Cys(3MeBn)-Glu-pro-Asp-Trp-Npg-Thr-Trp-Ala-Cys]-NH2
pIC50: > 8 pic50

B10: 3BP-3474 (peptide)
peptide: Ac-VYCE[dP]DWLTWAC[AEEA]K(DOTA)-NH2
modifications: linker 3-12 via mXylylene
SMILES: CC(=O)N[C@H](C(=O)N[C@@H](Cc1ccc(O)cc1)C(=O)N[C@H]1CSCc2cccc(c2)CSC[C@@H](C(=O)NCCOCCOCC(=O)N[C@@H](CCCCNC(=O)CN2CCN(CC(=O)O)CCN(CC(=O)O)CCN(CC(=O)O)CC2)C(N)=O)NC(=O)[C@H](C)NC(=O)[C@H](Cc2c[nH]c3ccccc23)NC(=O)[C@H]([C@@H](C)O)NC(=O)[C@H](CC(C)C)NC(=O)[C@H](Cc2c[nH]c3ccccc23)NC(=O)[C@H](CC(=O)O)NC(=O)[C@H]2CCCN2C(=O)[C@H](CCC(=O)O)NC1=O)C(C)C
notes: also called Ac-Val-Tyr-[Cys(3MeBn)-Glu-pro-Asp-Trp-Leu-Thr-Trp-Ala-Cys]-O2Oc-Lys(DOTA)-NH2
pIC50: > 8 pic50
